Results taken from patent US10836815B2, “Generation and comparative kinetic analysis of new glycosynthase mutants from Streptococcus pyogenes endoglycosidases for antibody glycoengineering” (UNIVERSITY OF MARYLAND, COLLEGE PARK, priority 2017, dated 2020).

Key:
Format in all cases: biochemical
deglycosylated rituximab [1] = experiment: Kinetic measurements (KM, Vmax) of Endo-S/Endo-S2 mutants for deglycosylated rituximab; conditions: Endo-S mutants, acceptor substrate deglycosylated rituximab, SCT-Oxa fixed at 400 μM
Description: (§1) Peptide-N-Glycosidase F (PNGase F) treated rituximab was used as the internal standard due to its similarities to the deglycosylated and transferred product in terms of their molecular structures and ionization efficiencies. After PNGase F treatment, a mutation will be introduced into the amino acid sequence of rituximab so the product antibody will not interfere with the reaction via re-glycosylation^35. A standard product S2G2F-rituximab was synthesized following the previously reported procedure^29. […] Serial dilutions containing a gradient of S2G2F-rituximab (0, 0.25, 0.5, 0.75, 1.0, 1.25 and 1.5 μM) were mixed with a stock solution containing 0.67 μM internal standard. These mixed sample solutions were quantified by selected ion monitoring (SIM) to calculate the single-point normalization factor^31. The factor could then be used to calculate the relative amount of the final product N-glycoform for each reaction in the following experiments.
(§2) Measurements of KM and Vmax for SCT-oxa. Serial dilutions with a total volume of 10 μL were prepared with a gradient of SCT-oxa concentrations and a constant deglycosylated antibody concentration mixed in PBS, pH 7.4. Each reaction was initiated by adding 1μμL, of Endo-S/S2 mutants with a concentration of 0.1 mg/M1 and the reaction was conducted at 30° C. The concentrations of SCT-oxa were within a range from 6.25 μM to 400 μM. For each reaction, three aliquots were taken at t=1, 2 and 3 min and immediately quenched in 100 μL 0.1% formic acid. The quenched reaction samples were then characterized by ESI-MS, and the concentration of product in each mixture was calculated using the normalization factor, as shown above. A linear progression curve was confirmed for each reaction by sampling at multiple early time points and plotting them in the same graph, which emphasized that the V0 measured indeed represents the initial rate of each reaction. The KM and Vmax were measured by fitting the initial velocity against the SCT-oxa concentration using the GraphPad Prism7 program. The experiments were conducts in triplicate to determine the error in these measurements.
The KM and Vmax values of both Endo-S and Endo-S2 mutants for the deglycosylated antibody substrate were measured in a similar fashion as to those for SCT-Oxa. In the serial reactions, the concentrations of antibody range from 0.313 μM to 20 μM, whereas the SCT-Oxa concentration was fixed at 400 μM. A similar control reaction was also performed for each concentration to monitor the non-enzymatic side reactions.

deglycosylated rituximab [2] = experiment: Transglycosylation activity assay of Endo-S and D233 mutants, LC-ESI-MS; conditions: for Transglycosylation Activity: deglycosylated rituximab 10.0 mg/mL, SCT-Oxa 1.38 mM (20 eq), enzyme 0.01 mg/mL, PBS pH 7.4, 30° C., duplicate; for Transglycosylation/Hydrolysis Ratio T/H: ratio of transglycosylation to hydrolysis activity, Table 1
Procedure: (§3) The hydrolytic activity of the mutants generated was evaluated using rituximab as the substrate, and the transglycosylation activity was evaluated using the sugar oxazoline and the deglycosylated rituximab as the donor and acceptor substrates, respectively (Scheme 1).
(§4) The LC-MS characterization of different antibody glycoforms was conducted on an Exactive Plus Orbitrap instrument (Thermo Scientific). The intact antibody sample was analyzed with a Waters XBridge™ BEH300 C4 column (3.5 μm, 2.1×50 mm). The program includes a 9 min linear gradient of 5-90% MeCN containing 0.1% formic acid at a flow rate of 0.4 mL/min. The original mass data were processed through deconvolution and integration through MagTran Software (Amgen).
as §1
(§5) The hydrolytic activity of each Endo-S mutants and the wild-type (0.01 mg/mL) was assayed in PBS (pH 7.4, 10 μl) at 30° C. with synthetic biantennary sialo-complex-type rituximab (1.0 mg/mL, 6.9 μM) as the starting material. Each reaction was terminated at 5 min and an aliquot was taken from the reaction mixture and dissolved in 0.1% formic acid. The relative quantity of the hydrolysis product was calculated through deconvolution and integration of the selected MS peaks. The experimental details of product quantification using LC-MS are illustrated below. The transglycosylation activity of Endo-S was measured in a similar fashion: deglycosylated Rituximab (10.0 mg/mL, 69 μM) was incubated with SCT-Oxa (1.38 mM, 20 eq) under catalysis of Endo-S enzymes (0.01 mg/mL) under the same condition as hydrolysis. The transglycosylation product SCT-Rituximab was analyzed as mentioned above. Both functional assays were repeated twice for each mutant and the wild-type, and the average activity was recorded

rituximab = experiment: Hydrolysis activity assay of Endo-S and D233 mutants, LC-ESI-MS; conditions: rituximab 1.0 mg/mL as substrate, enzyme 0.01 mg/mL, PBS pH 7.4, 30° C., 5 min, duplicate
Procedure: as §3, §4, §1, §5

[3] = Kinetic measurements (KM, Vmax) of Endo-S/Endo-S2 mutants for SCT-Oxa; conditions: Endo-S mutants, donor substrate SCT-Oxa, PBS pH 7.4, 30° C.
Procedure: Using a sialylated glycan oxazoline (SCT-Oxa) as the donor and the deglycosylated rituximab as the acceptor substrate, we measured the kinetic parameters of the enzyme catalyzed glycosylation were measured. A mass spectrometry-based approach with an internal standard was used to estimate the product formation.^31-33.
as §1
as §2, with “A linear progression curve was confirmed for each reaction by sampling at multiple early time points and plotting them in the same graph, which emphasized that the V0 measured indeed represents the initial rate of each reaction.” left out

Molecule | Km (deglycosylated rituximab [1]) | Transglycosylation Activity (deglycosylated rituximab [2]) | Transglycosylation/Hydrolysis Ratio T/H (deglycosylated rituximab [2]) | Specific Hydrolysis Activity (rituximab) | Km [3] | kcat [3]
Endo-S D233A (protein) MDKHLLVKRTLGCVCAATLMGAALATHHDSLNTVKAEEKTVQVQKGLPSIDSLHYLSENSKKEFKEELSKAGQESQKVKEILAKAQQADKQAQELAKMKIPEKIPMKPLHGPLYGGYFRTWHDKTSDPTEKDKVNSMGELPKEVDLAFIFHDWTKDYSLFWKELATKHVPKLNKQGTRVIRTIPWRFLAGGDNSGIAEDTSKYPNTPEGNKALAKAIVDEYVYKYNLDGLDVAVEHDSIPKVDKKEDTAGVERSIQVFEEIGKLIGPKGVDKSRLFIMDSTYMADKNPLIERGAPYINLLLVQVYGSQGEKGGWEPVSNRPEKTMEERWQGYSKYIRPEQYMIGFSFYEENAQEGNLWYDINSRKDEDKANGINTDITGTRAERYARWQPKTGGVKGGIFSYAIDRDGVAHQPKKYAKQKEFKDATDNIFHSDYSVSKALKTVMLKDKSYDLIDEKDFPDKALREAVMAQVGTRKGDLERFNGTLRLDNPAIQSLEGLNKFKKLAQLDLIGLSRITKLDRSVLPANMKPGKDTLETVLETYKKDNKEEPATIPPVSLKVSGLTGLKELDLSGFDRETLAGLDAATLTSLEKVDISGNKLDLAPGTENRQIFDTMLSTISNHVGSNEQTVKFDKQKPTGHYPDTYGKTSLRLPVANEKVDLQSQLLFGTVTNQGTLINSEADYKAYQNHKIAGRSFVDSNYHYNNFKVSYENYTVKVTDSTLGTTTDKTLATDKEETYKVDFFSPADKTKAVHTAKVIVGDEKTMMVNLAEGATVIGGSADPVNARKVFDGQLGSETDNISLGWDSKQSIIFKLKEDGLIKHWRFFNDSARNPETTNKPIQEASLQIFNIKDYNLDNLLENPNKFDDEKYWITVDTYSAQGERATAFSNTLNNITSKYWRVVFDTKGDRYSSPVVPELQILGYPLPNADTIMKTVTTAKELSQQKDKFSQKMLDELKIKEMALETSLNSKIFDVTAINANAGVLKDCIEKRQLLKK | > 200 µM | 1.06 100*(μmol/min/mg) | 17.67 | 0.06 100*(μmol/min/mg) | 87.9 ± 10.1 µM | 0.0223 ± 0.00317 s⁻¹
Endo-S D233Q (protein) MDKHLLVKRTLGCVCAATLMGAALATHHDSLNTVKAEEKTVQVQKGLPSIDSLHYLSENSKKEFKEELSKAGQESQKVKEILAKAQQADKQAQELAKMKIPEKIPMKPLHGPLYGGYFRTWHDKTSDPTEKDKVNSMGELPKEVDLAFIFHDWTKDYSLFWKELATKHVPKLNKQGTRVIRTIPWRFLAGGDNSGIAEDTSKYPNTPEGNKALAKAIVDEYVYKYNLDGLDVQVEHDSIPKVDKKEDTAGVERSIQVFEEIGKLIGPKGVDKSRLFIMDSTYMADKNPLIERGAPYINLLLVQVYGSQGEKGGWEPVSNRPEKTMEERWQGYSKYIRPEQYMIGFSFYEENAQEGNLWYDINSRKDEDKANGINTDITGTRAERYARWQPKTGGVKGGIFSYAIDRDGVAHQPKKYAKQKEFKDATDNIFHSDYSVSKALKTVMLKDKSYDLIDEKDFPDKALREAVMAQVGTRKGDLERFNGTLRLDNPAIQSLEGLNKFKKLAQLDLIGLSRITKLDRSVLPANMKPGKDTLETVLETYKKDNKEEPATIPPVSLKVSGLTGLKELDLSGFDRETLAGLDAATLTSLEKVDISGNKLDLAPGTENRQIFDTMLSTISNHVGSNEQTVKFDKQKPTGHYPDTYGKTSLRLPVANEKVDLQSQLLFGTVTNQGTLINSEADYKAYQNHKIAGRSFVDSNYHYNNFKVSYENYTVKVTDSTLGTTTDKTLATDKEETYKVDFFSPADKTKAVHTAKVIVGDEKTMMVNLAEGATVIGGSADPVNARKVFDGQLGSETDNISLGWDSKQSIIFKLKEDGLIKHWRFFNDSARNPETTNKPIQEASLQIFNIKDYNLDNLLENPNKFDDEKYWITVDTYSAQGERATAFSNTLNNITSKYWRVVFDTKGDRYSSPVVPELQILGYPLPNADTIMKTVTTAKELSQQKDKFSQKMLDELKIKEMALETSLNSKIFDVTAINANAGVLKDCIEKRQLLKK |  | 0.98 100*(μmol/min/mg) | 19.60 | 0.05 100*(μmol/min/mg) |  | 
